According to publication PMC7935953, “Insights on autophagosome–lysosome tethering from structural and biochemical characterization of human autophagy factor EPG5” (Communications Biology, 2021):

Target: T1, GABARAP (Homo sapiens, UniProt O95166)
T1 construct: made in house; host or cells: E. coli (T7 Express)
Assay: GST pull-down of hEPG5 (wild type and mutants) with GST-GABARAP bait
Type: binding
Conditions: anti-FLAG western blot, compared to wild-type hEPG5, triplicates
Experimental: For GST pull-down analysis, N-terminally GST-tagged LC3 and GABARAP proteins were expressed in Escherichia coli (T7 Express) cells. The cells were induced with 1 mM isopropyl β-d-1-thiogalacpyranoside [IPTG] for 4 h at 25 °C. The cell pellets were resuspended in 25 mL buffer E (50 mM Tris pH 8.0, 150 mM NaCl, and 1 mM PMSF). Cells were then sonicated for four cycles consisting of 1 min sonication followed by 2 min cooling on ice, with duty cycle set to 50% and output control at 5. Cell lysate was then centrifuged at 20,950 × g for 40 min at 4 °C. Supernatant was incubated for 1 h at 4 °C with glutathione resin (50% slurry, GenScript) pre-equilibrated with buffer E, while gently inverting. Resin was returned to the column and washed with buffer E. Proteins were eluted with 10 mM reduced glutathione (GoldBio) in buffer F (50 mM Tris pH 8.0, 150 mM NaCl). Free glutathione was removed by dialysis in buffer F and protein concentration was measured by spectrophotometry (NanoDrop, Thermo Scientific). Glycerol was added to a final concentration of 5%, then solutions were aliquoted and stored at −70 °C.
Pulldowns were performed with a 50 µL slurry of glutathione resin (50% slurry, GenScript). […]
All experiments were performed in triplicates. […] Intensity of His-FLAG-hEPG5, GST (control), and GST-LC3/GABARAP subfamily proteins in pull-down assays was quantified using Bio-Rad Image Lab Software v6.0. […]

T1 sequence (O95166 whole entry): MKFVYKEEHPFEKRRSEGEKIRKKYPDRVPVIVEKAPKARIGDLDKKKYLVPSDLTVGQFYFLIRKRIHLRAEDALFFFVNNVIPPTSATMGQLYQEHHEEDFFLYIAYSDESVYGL

B1: hEPG5^Δ1–1198: hEPG5 truncation mutant which excludes the entire N-terminal region (protein)
chain: YHCDRSLLSSLVSWIVAGNITPSFVEGLATPTQVWFAWTVLNMESIFEEDSQLRRVIEGELVINSAFTPDQALKKAQTQLKLPIVPSLQRLLIYRWAHQALVTPSDHPLLPLIWQKFFLLYLHRPGPQYGLPIDGCIGRRFFQSPAHINLLKEMKRRLTEVADFHHAASKALRVPAEGSEGLPESHSGTPGYLTSPELHKELVRLFNVYILWLEDENFQKGDTYIPSLPKHYDIHRLAKVMQNQQDLWMEYLNMERIYHEFQETVGLWTQAKLESHSTPCSLSVQLDFTDPLLAKERVLSNLRKHEAPQPPLALHPTKPPVPVISSAVLLSQKDATQLVCTDLNLLQQQARTAALRESQQVALDGELLDTMPKQYVNREEQTTLHLECRGSSGKKCQGAAVVTVQFEGMHKNEAISQQLHVLRKEVKQLQAEAAKPPSLNIVEAAVHAENLITALVNAYKLQPTPGIQKVGISLFFTIVDYVSDETQRHPPTRQFFTSCIEILGQVFISGIKSECRKVLETILKNSRLCSLLSPFFTPNAAPAEFIQLYEQVVKFLSEDNSDMIFMLLTKFDLKQWLSATKPPLSDRTRLLESIHLALTAWGLEPDEDILMPFNLFCKHWTYLLLYQFPDQYSDILRLLMQSSAEQLLSPECWKATLRALGCCAPSCQQGAASTEGAVLPSSSDALLSDKQVMETIQWLSDFFYKLRLSKMDFKSFGLFSKWSPYMADVKTFLGYLVKRLIDLEMTCLAQDPTASRKTVLKSLHSVIIQLFKPWILVLEDNESSQQRHYPWLESDTVVASSIVQLFTDCIDSLHESFKDKLLPGDAGALWLHLMHYCEACTAPKMPEFILYAFHSTYRKLPWKDLHPDQMLMEAFFKVERGSPKSCFLFLGSVLCEVNWVSVLSDAWNSSPHPETRSMIVCLLFMMILLAKEVQLVDQTDSPLLSLLGQTSSLSWHLVDIVSYQSVLSYFSSHYPPSIILAKESYAELIMKLLKVSAGLSIPTDSQKHLDAVPKCQAFTHQMVQFLSTLEQNGKITLAVLEQEMSKLLDDIIVFNPPDMDSQTRHMALSSLFMEVLMMMNNATIPTAEFLRGSIRTWIGQKMHGLVVLPLLTAACQSLASVRHMAETTEACITAYFKESPLNQNSGWGPILVSLQVPELTMEEFLQECLTLGSYLTLYVYLLQCLNSEQTLRNEMKVLLILSKWLEQVYPSSVEEEAKLFLWWHQVLQLSLIQTEQNDSVLTESVIRILLLVQSRQNLVAEERLSSGILGAIGFGRKSPLSNRFRVVARSMAAFLSVQVPMEDQIRLRPGSELHLTPKAQQALNALESMASSKQYVEYQDQILQATQFIRHPGHCLQDGKSFLALLVNCLYPEVHYLDHIR
modifications: left off: His, end not stated, kept | FLAG, end not stated, kept
notes: hEPG5 truncation mutant which excludes the entire N-terminal region
B1 was tested, and the “binding to GABARAP in GST pull-down, in words” value was “but not hEPG5^Δ1–1198 was pulled down by GABARAP”.
